From patent US20130266958A1 (INTERNATIONAL INSTITUTE OF CANCER IMMUNOLOGY, published 2013)

Key:
Experiment in all cases: HPLC folding test (Superdex 200), HLA class II monomer protein with 50-fold molar peptide, against solvent only
[1] = target: T1, HLA class II monomer protein DRB1* 1501 (human)
T1 construct: Soluble MHC class II monomer protein used in the HPLC folding test; also called HLA-DRB1* 1501 molecule
Method: (§1) After reacting the solution at 37° C., the retention time was analyzed using HPLC.
(§2) As a folding buffer, a 10% amount of a mixed solution of an HLA class II monomer protein and a peptide was added. The amount of the folding buffer added was calculated using the following calculation equation.
(§3) To a glass vial charged with an HLA class II monomer protein, a peptide solution and a folding buffer were added in a calculated amount, and the mixture was allowed to stand at 37° C. overnight. HPLC (Waters 2695 Separation Module) was started, and a Seperdex 200 column was equilibrated with an equilibrating buffer. To all samples, 300 μL of the equilibrate buffer was added and well mixed, and a 100 μL portion of the mixture was used as a sample injection volume to calculate the retention time. Analysis time was 50 minutes. The criterion for the folding of an HLA class II monomer protein with a peptide is a shift of the retention time of not less than 0.1 minute as compared with a control (solvent only).

[2] = target: T2, HLA class II monomer protein DRB1* 0901 (human)
T2 construct: Soluble MHC class II monomer protein used in the HPLC folding test; also called HLA-DRB1* 0901 molecule
Method: as §1, §2, §3

[3] = target: T3, HLA class II monomer protein DRB1* 0405 (human)
T3 construct: Soluble MHC class II monomer protein used in the HPLC folding test
Method: as §1, §2, §3

[4] = target: T4, HLA class II monomer protein DRB1* 0101 (human)
T4 construct: Soluble MHC class II monomer protein used in the HPLC folding test
Method: as §1, §2, §3

[5] = target: T5, HLA class II monomer protein DRB1* 0803 (human)
T5 construct: Soluble MHC class II monomer protein used in the HPLC folding test; also called HLA-DRB1* 0803 molecule
Method: as §1, §2, §3

[6] = target: T6, HLA class II monomer protein DRB1* 1502 (human)
T6 construct: Soluble MHC class II monomer protein used in the HPLC folding test; also called HLA-DRB1* 1502 molecule
Method: as §1, §2, §3

[7] = target: T7, HLA class II monomer protein DRB4* 0101 (human)
T7 construct: Soluble MHC class II monomer protein used in the HPLC folding test
Method: as §1, §2, §3

Measured: degree of shift of the retention time

B1: WT1-332 (a peptide consisting of the amino acid sequence depicted in SEQ ID NO:2) (peptide)
peptide: KRYFKLSHLQMHSRKH
notes: Synthetic peptide; part of human WT1 protein; also called WT1 peptide
≥ 0.1 min: [1] | [2] | [3] | [4] | [5] | [6] | [7]
